Among the data in article PMC8428690 are Kd, stoichiometry N and percent inhibition of spTorA-GFP binding to Tat++ IMVs values, retold here.

In test [1] the target is spTorA-GFP(Alexa532) (E. coli | not stated). Briefly: co-sedimentation; competition, apparent KD: spTorA-GFP(Alexa532) 50 nM pre-incubated with various concentrations of TorD (10 min, 37°C), then with Tat++ IMVs (A280 = 5; 10 min, 37°C), pelleted (32,000 g, 4°C, 10 min); IMV-bound precursor by in-gel fluorescence; high-BSA translocation buffer.
Sequence of spTorA-GFP(Alexa532) (E. coli | not stated) (P33225 1-39, tags left off): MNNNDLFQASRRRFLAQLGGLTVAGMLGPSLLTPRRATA
For test [2], the target named is H6-spTorA-mCherry (E. coli | not stated). Nature of the test: SEC; fractions 19-21 of the purified 1:1 TorD/spTorA-mCherry complex pooled, centrifuged and at once re-run on the column (~2.3-3.5 μM total TorD); KD estimated from the ratio of the peaks.
Sequence of H6-spTorA-mCherry (E. coli | not stated) (P33225 1-39 limits assumed): as the sequence (P33225 1-39, tags left off) above
Test [3] shares this target. Nature of the test: SEC; substrate (~7 μM) mixed with TorD 1:1 or 1:2, 10 min at 37°C in FPLC buffer with 5 mM DTT, then Superdex 75 at 4°C; fractions analysed by anti-6xHis Western blot. In general terms: In gel filtration, larger molecules generally elute earlier.
Test [4] has as its target spTorA-GFP(Alexa532) (E. coli | not stated). Briefly: co-sedimentation; competition, apparent KD: spTorA-GFP(Alexa532) 50 nM pre-incubated with various concentrations of TorD (10 min, 37°C), then with Tat++ IMVs (A280 = 5; 10 min, 37°C), pelleted (32,000 g, 4°C, 10 min); IMV-bound precursor by in-gel fluorescence; high-BSA translocation buffer. This is another data set of the same source.

The target of test [5] is TorD-H6 (Escherichia coli TorD, 6xHis tagged) (E. coli) (UniProt P36662). Briefly: SEC; Ni-NTA purified TorD alone, ~170 μM total load; Superdex 75 10/300 GL, FPLC buffer (5 mM MgCl2, 150 mM NaCl, 25 mM MOPS, 25 mM MES, 25% glycerol, pH 8.0), 5 mM DTT, 4°C; dimer to monomers, KD estimated from the monomer/dimer ratio.

Like-named read-outs stand apart in the source and are kept apart here.

B1: TorD-H6 (Escherichia coli TorD, 6xHis tagged) (natural protein)
chain: MTTLTAQQIACVYAWLAQLFSRELDDEQLTQIASAQMAEWFSLLKSEPPLTAAVNELENRIATLTVRDDARLELAADFCGLFLMTDKQAALPYASAYKQDEQEIKRLLVEAGMETSGNFNEPADHLAIYLELLSHLHFSLGEGTVPARRIDSLRQKTLTALWQWLPEFVARCRQYDSFGFYAALSQLLLVLVECDHQNR
One may read the stoichiometry N as the number of molecules, sites or subunits per partner or assembly. For B1, the Kd is 0.8 µM in test [1], 1.5 µM in test [2], 1.3 µM in test [4] and > 50 µM in test [5]. The molecule further had a stoichiometry N in test [3] of 1. Besides, the percent inhibition of spTorA-GFP binding to Tat++ IMVs at ~1 μM TorD in test [4] turned out to be 50%.
